From patent US20220056125A1 (CEPHALON, published 2022)

T1: human PAR-2 (human, UniProt P55085 26-397)
T1 sequence: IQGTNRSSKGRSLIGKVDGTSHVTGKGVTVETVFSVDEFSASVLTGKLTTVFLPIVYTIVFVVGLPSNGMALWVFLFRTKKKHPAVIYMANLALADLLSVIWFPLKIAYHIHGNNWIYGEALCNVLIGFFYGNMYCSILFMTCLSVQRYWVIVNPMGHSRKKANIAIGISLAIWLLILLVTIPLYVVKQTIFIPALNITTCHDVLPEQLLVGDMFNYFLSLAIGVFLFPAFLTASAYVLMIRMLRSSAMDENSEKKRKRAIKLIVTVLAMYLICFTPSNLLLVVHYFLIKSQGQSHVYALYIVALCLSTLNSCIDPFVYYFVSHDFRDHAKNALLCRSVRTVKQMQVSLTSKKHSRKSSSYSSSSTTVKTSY

T2: rat PAR-2 on cells (rat, UniProt Q63645 26-397)
T2 construct: transiently transfected CHEM-1 cells
T2 sequence: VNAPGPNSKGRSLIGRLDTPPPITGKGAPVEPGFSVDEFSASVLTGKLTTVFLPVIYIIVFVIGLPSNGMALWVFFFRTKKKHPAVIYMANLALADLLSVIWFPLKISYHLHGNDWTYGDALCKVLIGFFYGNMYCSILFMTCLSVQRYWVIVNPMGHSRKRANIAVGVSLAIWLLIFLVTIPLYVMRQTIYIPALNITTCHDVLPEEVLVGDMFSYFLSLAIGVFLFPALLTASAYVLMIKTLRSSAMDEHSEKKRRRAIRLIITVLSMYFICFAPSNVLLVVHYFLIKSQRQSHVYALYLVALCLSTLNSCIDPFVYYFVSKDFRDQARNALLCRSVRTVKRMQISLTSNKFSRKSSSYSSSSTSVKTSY

T3: recombinant human PAR-2 (human, UniProt P55085 37-397, limits assumed)
T3 construct: detergent-solubilised preparation used in SPR; also called recombinant PAR-2
T3 sequence: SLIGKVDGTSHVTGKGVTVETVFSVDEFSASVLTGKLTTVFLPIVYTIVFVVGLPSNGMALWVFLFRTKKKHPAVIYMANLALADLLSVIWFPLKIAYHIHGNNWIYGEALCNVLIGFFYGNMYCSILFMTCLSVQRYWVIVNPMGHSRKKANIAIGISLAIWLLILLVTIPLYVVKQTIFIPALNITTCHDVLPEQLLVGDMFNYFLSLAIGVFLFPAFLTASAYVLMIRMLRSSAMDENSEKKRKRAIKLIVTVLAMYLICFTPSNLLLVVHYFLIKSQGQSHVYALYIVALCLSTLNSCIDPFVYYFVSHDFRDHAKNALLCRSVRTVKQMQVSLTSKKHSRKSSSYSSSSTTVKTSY

T4: human PAR-1 (human, UniProt P25116 22-425)
T4 construct: also called huPAR-1
T4 sequence: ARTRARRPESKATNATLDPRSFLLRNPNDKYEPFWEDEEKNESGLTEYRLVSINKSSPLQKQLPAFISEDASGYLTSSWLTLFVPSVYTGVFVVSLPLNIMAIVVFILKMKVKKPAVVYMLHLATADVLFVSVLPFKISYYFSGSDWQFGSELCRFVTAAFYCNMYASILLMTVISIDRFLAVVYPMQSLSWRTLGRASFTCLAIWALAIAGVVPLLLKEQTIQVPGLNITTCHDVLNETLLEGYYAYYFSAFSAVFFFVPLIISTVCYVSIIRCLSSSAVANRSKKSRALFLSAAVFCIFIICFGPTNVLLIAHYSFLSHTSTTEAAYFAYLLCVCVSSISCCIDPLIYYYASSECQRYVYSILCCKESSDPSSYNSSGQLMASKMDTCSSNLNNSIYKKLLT

B1: P24E1102 (antibody, human IgG4 S228P, kappa, V domains shown)
VH: QVQLVQSGAEVKKPGSSVKVSCKASGFSLSSYAISWVRQAPGQGLEWMGVIWGNQNVYYAQKFQGRVTITADESTSTAYMELSSLRSEDTAVYYCARWKGYKDYPFDYWGQGTLVTVSS
VL: EIVLTQSPATLSLSPGERATLSCRASQNVYKWLDWYQQKPGQAPRLLIYNANTRATGIPARFSGSGSGRDFTLTISSLEPEDFAVYYCQQHHSGWTFGGGTKVEIKR
notes: human IgG4 S228P K447del / kappa; also called Anti-PAR-2 (P24E1102); TEV-56192 P24E1102
B2: Ab309 (antibody, human IgG4, V domains shown)
VH: QVQLKESGPGLVQPSQTLSLTCTVSGFSLNSYGVIWARQPPGKGLDWMGVIWGNGNTYYNSDLKSRLSISRDTSKSQVFLKMNNLQAEDTALYFCARWRGYKDYPFDYWGQGVMVTVSS
VL: DIQMTQSPSFLSASVGDRVTFNCKASQNIYKYLDWYQQKLGEAPKLLIYNTNSLHTGIPSRFSGSGFGTDFTLTISSLQPEDVATYFCLQHNSGWTFGGGTKLELR

Legend:
human PAR-2 [1] = biological target: T1, human PAR-2; test: cell-based or functional assay
human PAR-2 [2] = biological target: T1, human PAR-2; test: cell-based or functional assay; remark: listed apart in the source
human PAR-2 [3] = biological target: T1, human PAR-2; test: cell-based or functional assay; remark: listed apart in the source
human PAR-2 [4] = biological target: T1, human PAR-2; test: cell-based or functional assay; remark: listed apart in the source
rat PAR-2 on cells = biological target: T2, rat PAR-2 on cells; test: flow cytometry, transiently transfected CHEM-1 cells
Method: The cells were plated in 96 well plates at 2×10⁵ cells/well. Following a wash step using Phosphate buffered saline (PBS), the primary antibody (anti-PAR-2 antibody) was added at a concentration of 10 μg/mL in 50 μL of FACS buffer (0.5% w/v BSA in PBS) to each well and incubated for 10-15 mins. Following a wash step, secondary antibody (anti-human Fc-FITC) was added to the wells at 1:200 dilution in 50 μL for 10-15 mins. Following a washing step, the cells were re-suspended in fluorescence-activated cell sorting (FACS) buffer. The flow cytometry analysis was performed on an Intellicyt iQue screener. Gates were drawn around the different intensities of encoder dye-positive cells and these populations were analyzed separately from each other and the unlabeled cells for binding by the primary antibody.
P24E1102 binding was also assessed by flow cytometry, as described in Example 1 supra, using PAR-2 transiently transfected into CHEM-1 cells. In addition to human, cynomolgus, mouse and rat, guinea pig, rabbit and dog PAR-2 were also tested. P24E1102 bound well to human and cynomolgus PAR-2 but minimally to all other species tested.

recombinant human PAR-2 = biological target: T3, recombinant human PAR-2; test: SPR, antibody captured on Protein A chip, recombinant PAR-2 injected
Method: (§1) Selected antibodies were tested for binding to various species of PAR-2 using surface plasmon resonance (SPR) assay for antibody binding to recombinant PAR-2, except that human PAR-2 was substituted with PAR-2 from cynomolgus monkeys, rat, or mice.
(§2) Antibodies were transfected and harvested as described in Example 3, supra. Antibodies in supernatant were diluted 1 in 50-250 in running buffer (50 mM HEPES, 250 mM NaCl, 0.1% w/v LMNG, 0.025% w/v CHAPS, 0.005% CHS, pH 7.4) and purified antibodies were diluted to 0.5 ug/mL in running buffer A Series S Protein A chip was docked into the instrument (Biacore S20) and the system was primed four times with running buffer prior to the run. Recombinant human PAR-2 was diluted to 0-5 μg/mL in running buffer. The surface was regenerated using 50 mM NaOH. The antibody was captured to between 20 to 110 Relative Units on the chip surface. The sample (recombinant PAR-2) was injected for 1 min at 30 μl/min, followed by dissociation phase of 180s. Sensorgrams were double referenced by buffer subtraction and by reference cell subtraction. Binding curves were then fit to a 1:1 binding model with kinetic constants derived from curve fits. Antibodies were ranked by dissociation rate (kd) when only one concentration of antigen was injected. Antibodies were ranked by their equilibrium dissociation constant (KD) when multiple concentrations of PAR-2 were injected. […]

[5] = biological target: T5, recombinant cynomolgus monkey PAR-2 (cynomolgus monkey); test: as above
T5 construct: also called cynomolgus PAR-2
T5 sequence (Q863Y8 other isoform, or with tags, fused parts or gaps): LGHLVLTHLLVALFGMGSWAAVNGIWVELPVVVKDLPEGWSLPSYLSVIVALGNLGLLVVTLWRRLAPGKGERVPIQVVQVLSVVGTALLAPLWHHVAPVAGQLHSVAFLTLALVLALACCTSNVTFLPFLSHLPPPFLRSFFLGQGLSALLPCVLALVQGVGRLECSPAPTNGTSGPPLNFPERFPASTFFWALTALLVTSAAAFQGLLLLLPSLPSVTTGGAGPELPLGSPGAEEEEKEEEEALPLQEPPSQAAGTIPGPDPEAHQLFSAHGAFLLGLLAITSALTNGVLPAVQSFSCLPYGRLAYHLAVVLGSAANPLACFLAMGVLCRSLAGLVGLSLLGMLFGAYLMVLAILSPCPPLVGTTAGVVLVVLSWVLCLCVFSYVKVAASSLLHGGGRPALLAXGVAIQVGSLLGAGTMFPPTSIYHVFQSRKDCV
Method: as §1, §2

human PAR-2 [6] = biological target: T1, human PAR-2; test: cell-based or functional assay; remark: listed apart in the source
human PAR-2 [7] = biological target: T1, human PAR-2; test: cell-based or functional assay; remark: listed apart in the source
human PAR-2 [8] = biological target: T1, human PAR-2; test: cell-based or functional assay; remark: listed apart in the source
human PAR-1 = biological target: T4, human PAR-1; test: flow cytometry, transfected Expi293F cells

| Binder | IC50, PAR-2 activating ligand-induced calcium flux in A549 cells (human PAR-2 [1]) | PAR-2 β-arrestin cell based assay IC50, 2 µM SLIGKV (human PAR-2 [2]) | Calcium flux IC50 (human PAR-2 [3]) | IL-6 release in A549 cells IC50 (human PAR-2 [3]) | IL-8 release in A549 cells IC50 (human PAR-2 [3]) | IC50 mean, calcium flux at SLIGKV EC80, Nomad line (human PAR-2 [4]) | IC50 mean, β-arrestin at SLIGKV EC80, Nomad line (human PAR-2 [4]) | binding result (rat PAR-2 on cells) | Kd (recombinant human PAR-2) | Kd [5] | IC50, PAR-2 β-arrestin cell assay (human PAR-2 [6]) | IC50, PAR-2 calcium flux assay (trypsin EC80) (human PAR-2 [7]) | PAR-2 calcium flux cell assay IC50 (human PAR-2 [8]) | PAR-2 β-arrestin cell assay IC50, 1 µM SLIGKV (human PAR-2 [8]) | binding result (human PAR-1) |
| --- | --- | --- | --- | --- | --- | --- | --- | --- | --- | --- | --- | --- | --- | --- | --- |
| B1 | 13.2 nM | 1.4 nM | 17.4 nM | 5 nM | 4.62 nM | 2.07 nM | 5.38 nM | binds | 0.433 to 0.946 nM | 4.45 nM | – | – | – | – | – |
| B2 | – | – | – | – | – | – | – | – | – | – | 1.6 nM | 6.7 nM | 8.6 nM | 4.4 nM | no binding (tested: 10 µg/mL) |
